This is an account of results in patent publication US8969060B2, “Modified glucose dehydrogenase” (Ikeda Food Research Co., Ltd., priority 2011, dated 2015).

Numbering of substitutions follows the chain as printed. In names and notes the source's numbering stands. Several values for one entry are separate records, joined by “and”; a condition that tells them apart may be missing. Identical values can stand only once.

The labels stand for the following.
B1: F432L: modified GLD: SEQ ID NO: 1 with substitution F432L (protein, listed as Aspergillus terreus)
chain: MLGKLSFLSALSLAVAAPLSNSTSAKYDYIVIGGGTSGLAVANRLSEDPNVNVLILEAGGSVWNNPNVTNVDGYGLAFGSDIDWQYQSVNQPYGGNLSQVLRAGKALGGTSTINGMAYTRAEDVQIDAWETIGNTGWTWKNLFPYYRKSENFTVPTKSQTSLGASYEAGAHGHEGPLDVAFTQIESNNLTTYLNRTFQGMGLPWTEDVNGGKMRGFNLYPSTVNLEEYVREDAARAYYWPYKSRPNLHVLLNTFANRIVWDGEAHDGHITASGVEITSRNGTVRVINAEKEVIVSAGALKSPAILELSGIGNPSVLDKHNIPVKVNLPTVGENLQDQVNSHMDASGNTSISGTKAVSYPDVYDVFGDEAESVAKQIRANLKQYAADTAKANGNIMKAADLERLFEVQYDLIFKGRVPIAEVLNYPGSATSVLAEFWALLPFARGSVHIGSSNPAEFPVINPNYFMLDWDAKSYVAVAKYIRRSFESYPLSSIVKESTPGYDVIPRNASEQSWKEWVFDKNYRSNFHPVGTAAMMPREIGGVVDERLNVYGTTNVRVVDASVLPFQVCGHLVSTLYAVAERAADLIKADAGRR
modifications: SIGNAL (1)..(19)
B2: Wild-type: wild-type FAD-conjugated glucose dehydrogenase (GLD) of Aspergillus terreus FERM BP-08578, SEQ ID NO: 1 (protein, listed as Aspergillus terreus)
chain: B1 chain with L432F
modifications: FAD cofactor; SIGNAL (1)..(19)
B3: G426A: modified GLD: SEQ ID NO: 1 with substitution G426A (protein, listed as Aspergillus terreus)
chain: B1 chain with G426A, L432F
modifications: SIGNAL (1)..(19)
B4: H341W: modified GLD: SEQ ID NO: 1 with substitution H341W (protein, listed as Aspergillus terreus)
chain: B1 chain with H341W, L432F
modifications: SIGNAL (1)..(19)
B5: F432R: modified GLD: SEQ ID NO: 1 with substitution F432R (protein, listed as Aspergillus terreus)
chain: B1 chain with L432R
modifications: SIGNAL (1)..(19)
B6: G426D: modified GLD: SEQ ID NO: 1 with substitution G426D (protein, listed as Aspergillus terreus)
chain: B1 chain with G426D, L432F
modifications: SIGNAL (1)..(19)
B7: G426C: modified GLD: SEQ ID NO: 1 with substitution G426C (protein, listed as Aspergillus terreus)
chain: B1 chain with G426C, L432F
modifications: SIGNAL (1)..(19)

A short description of the first data set: Relative enzymatic activity of GLD (DCIP/1-m-PMS, plate reader, yeast culture supernatant) with 1,10-phenanthroline present. The format is biochemical. As to conditions: random-mutation mutants, sample value with inhibitor at 1 mM / blank value, inhibitor not named in Table 1. In outline:
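Yeast transformants grown in YPD, 30° C., 24 h; diluted culture supernatant assayed in phosphate buffer pH 7.0 with D-glucose, DCIP and 1-m-PMS, DCIP absorbance change at 600 nm. Relative activity (%) = activity with 1 mM 1,10-phenanthroline (final, replacing methanol) divided by activity without it.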
Consider B1, for which the “Relative Activity” value is given as 80.4%.

Consider B2, for which the “Relative Activity” value is given as 25.7%.

Staying with this data set, now noted: site-specific mutants, inhibitor final concentration 1 mM.
Turning to B1, the “Relative Activity [%] 1,10-Phenanthroline” value is 91.7%.

In the case of B3, the “Relative Activity [%] 1,10-Phenanthroline” value stood at 68.7%.

With B4, the “Relative Activity [%] 1,10-Phenanthroline” value worked out at 100.3%.

With B2, the “Relative Activity [%] 1,10-Phenanthroline” value came out at 30.0%.

Turning to B5, the “Relative Activity [%] 1,10-Phenanthroline” value was 86.2% and 94.2%.

In the case of B6, the “Relative Activity [%] 1,10-Phenanthroline” value was 56.5%.

As to B7, the “Relative Activity [%] 1,10-Phenanthroline” value came out at 78.0%.

A short description of another data set: Susceptibility of purified enzyme to 1,10-phenanthroline (spectrophotometer). The format is biochemical. As to conditions: inhibitor 1 mM. On the procedure: (§1) 1.0 mL of 0.1 M potassium phosphate buffer (pH 7.0), 1.0 mL of 1.0 M D-glucose, 0.14 mL of 3 mM 2,6-dichlorophenol indophenol (hereinafter referred to as DCIP), 0.2 mL of 3 mM 1-methoxy-5-methylphenazinium methylsulfate (hereinafter referred to as 1-m-PMS), 0.06 mL of methanol and 0.55 mL of distilled water are added to a 3-mL quartz cell (light path length: 1 cm), and the cell is placed in a spectrophotometer provided with a thermostat cell holder and incubated at 37° C. for 10 minutes. Thereafter, 0.05 mL of an enzyme solution is added to the cell, and then, a change in the absorbance of DCIP at 600 nm (ΔABS/min) is determined. The molar extinction coefficient of DCIP at pH 7.0 is taken as 16.3×10^3 cm^−1 M^−1, and enzymatic activity to reduce 1 μmol of DCIP per minute is substantially equivalent to 1 unit of the enzymatic activity. Therefore, the enzymatic activity is determined from the change in the absorbance according to Equation I. In Example 8, methanol was replaced with the same amount of distilled water.
(§2) In the following examples, a value of the enzymatic activity determined by the spectrometer or plate reader using the above reagent composition is considered as a blank value. On the other hand, a sample value is determined using a methanol solution comprising the inhibitor such as 1,10-phenanthroline or proflavin hydrochloride at a final concentration of 1 mM instead of the methanol. Enzymatic activity (unit/mL)=(−ΔABS/16.3)×3.0/0.05×(Dilution ratio of enzyme) [Equation 1]
(§3) The mutants having the mutation of H341W and F432L, respectively, were inoculated into a shake flask containing 150 mL the YPD medium. After shaking culture at 30° C. and 120 rpm for 48 hours, the culture mixture was centrifuged at 3,000×g for 5 min. and the supernatant was filtered through a membrane filter with 10 μm. […]
(§4) After diluting the purified enzyme to an appropriate concentration, the sample value and blank value were determined in accordance with the method for determination of the enzymatic activity using the spectrophotometer.
Regarding B1, the “Relative Activity [%] 1,10-Phenanthroline” value is listed as 90.8%.

Turning to B4, the “Relative Activity [%] 1,10-Phenanthroline” value is 89.5%.

As to B2, the “Relative Activity [%] 1,10-Phenanthroline” value is 41.1%.

A further data set in a line: Susceptibility of purified enzyme to proflavin hydrochloride (spectrophotometer). It counts as biochemical. To be noted: inhibitor 1 mM. On the procedure: as §1, §2, §3, §4
With B1, the “Relative Activity [%] Proflavin hydrochloride” value is recorded as 88.1%.

B4: the “Relative Activity [%] Proflavin hydrochloride” value amounted to 144.3%.

B2: the “Relative Activity [%] Proflavin hydrochloride” value turned out to be 50.9%.

The nature of the next data set: Susceptibility to 1,10-phenanthroline at a high concentration. It counts as biochemical. As to conditions: final conc. 1 mM. On the procedure:
as §1
The enzymatic activity is determined in the following manner in Examples 3 and 6 wherein a plate reader (Japan Molecular Device Corporation, SpectraMax Plus384) is used. Thus, culture supernatant that had been diluted in advance with an appropriate magnification is added to a 96-well microplate with an amount of 100 μl per well. A reagent for the determination of the enzymatic activity comprising phosphate buffer (pH 7.0), 1.0 M D-glucose, 3 mM DCIP, 3 mM 1-m-PMS and methanol with a volume ratio of 0.1:1:0.14:0.2:0.06 is added to the 96-well microplate with an amount of 100 μl per well, and a change in the absorbance of DCIP at 600 nm (ΔABS/min) is then determined. The enzymatic activity can be calculated by conversion in proportion to a change in the absorbance of an enzyme solution for which the enzymatic activity has already been known by the above-mentioned activity determination procedure using the spectrophotometer.
as §2
The relative activity was determined in the same manner as in Examples 3 and 6 in the co-existence of the inhibitors at a high concentration.
For B1, the “Relative Activity[%]” value came to 97.0%.

B4: the “Relative Activity[%]” value was 99.4%.

The data set is the same for the next values; noted with them: final conc. 5 mM.
Regarding B1, the “Relative Activity[%]” value is 64.2%.

With B4, the “Relative Activity[%]” value worked out at 78.1%.

Still in this data set, the particulars now being: final conc. 10 mM.
As to B1, the “Relative Activity[%]” value came out at 47.2%.

Consider B4, for which the “Relative Activity[%]” value amounted to 63.2%.

Still in this data set, the particulars now being: final conc. 20 mM.
Consider B1, for which the “Relative Activity[%]” value stood at 32.1%.

Consider B4, for which the “Relative Activity[%]” value was determined as 45.8%.

A short description of another data set: Relative enzymatic activity of GLD (DCIP/1-m-PMS, plate reader, yeast culture supernatant) with proflavin hydrochloride present. The format is biochemical. As to conditions: site-specific mutants, inhibitor final concentration 1 mM. An outline of the steps:
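Culture supernatant diluted and mixed with reagent of phosphate buffer pH 7.0, 1.0 M D-glucose, 3 mM DCIP, 3 mM 1-m-PMS and methanol (0.1:1:0.14:0.2:0.06). DCIP absorbance decrease at 600 nm followed; proflavin hydrochloride in methanol replaced methanol at 1 mM final. Activity expressed as % of inhibitor-free blank.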
B1: the “Relative Activity [%] Proflavin hydrochloride” value was found to be 68.1%.

For the molecule B3, the “Relative Activity [%] Proflavin hydrochloride” value stood at 51.2%.

As to B4, the “Relative Activity [%] Proflavin hydrochloride” value is given as 88.4%.

On to B2, for which the “Relative Activity [%] Proflavin hydrochloride” value is listed as 35.0%.

On to B5, for which the “Relative Activity [%] Proflavin hydrochloride” value is 73.7% and 72.6%.

On to B6, for which the “Relative Activity [%] Proflavin hydrochloride” value is listed as 34.2%.

For B7, the “Relative Activity [%] Proflavin hydrochloride” value stood at 64.1%.

A short description of another data set: Susceptibility to proflavin at a high concentration. It counts as biochemical. To be noted: final conc. 2 mM. On the procedure:
as §1, with “The molar extinction coefficient of DCIP at pH 7.0 is taken as 16.3×10^3 cm^−1 M^−1, and enzymatic activity to reduce 1 μmol of DCIP per minute is substantially equivalent to 1 unit of the enzymatic activity.” left out
The enzymatic activity is determined in the following manner in Examples 3 and 6 wherein a plate reader (Japan Molecular Device Corporation, SpectraMax Plus384) is used. […] A reagent for the determination of the enzymatic activity comprising phosphate buffer (pH 7.0), 1.0 M D-glucose, 3 mM DCIP, 3 mM 1-m-PMS and methanol with a volume ratio of 0.1:1:0.14:0.2:0.06 is added to the 96-well microplate with an amount of 100 μl per well, and a change in the absorbance of DCIP at 600 nm (ΔABS/min) is then determined. […]
With B1, the “Relative Activity[%]” value is given as 91.6%.

Consider B4, for which the “Relative Activity[%]” value is 138.2%.
